Four substances from patent US6156727A, “Anti-atherosclerotic peptides and a transgenic mouse model of antherosclerosis” (UAB Research Foundation, priority 1997, dated 2000) can be followed below.

Several values for one entry are separate records, joined by “and”; a condition that tells them apart may be missing. Equal entries are not always repeated. Where two headings read alike, the source gives them in different places. No end group written: not given here.

In data set [1] the test system is diet administered atherosclerosis in peptide transgenic mice. The data set can be described thus: In vitro fertilized peptide-transgenic mice on high fat diet for 16 weeks (plasma peptide, cholesterol, aortic cross-section). In kind it is in vivo. Particulars: transgenic IVF mice, retroorbital bleed, Western analysis; some of the mice. An excerpt: The peptide gene was then cloned into the MunI site of the apoE-promoter that is specific for expression of the peptide/protein in the liver. SalI-Spel fragment of the apoE promoter to which the peptide gene was subcloned was microinjected into mouse oocytes to produce transgenic mice. […] Further transgenic mice were generated from these two founders and analysed for the presence of peptide gene.
This produced a number of animals with the peptide gene present in different amounts. Western analysis using the antibody produced for the chemically synthesized peptide indicated the presence of peptide in different amounts (FIG. 4).
The animals were then administered TeckLad diet that is known to produce foam cell lesions in 57BL6/J mice when administered for sixteen weeks. At the end of sixteenth week, mice were sacrificed, plasma was collected and the hearts were harvested. The aortal cross-sections were stained with Oil Red O that stains lipid laden fatty streaks. The plasma samples were subjected to lipoprotein analysis. The results of plasma analysis indicated clearly that the profiles were different from each other and some of the profiles looked very similar to the control mice on the normal diet, with the cholesterol values around ≤100 mg/dl.
Blood from the in vitro fertilized animals were obtained from the retroorbital bleed and red cells were separated by centrifugation. […]

The subject of data set [2] is plasma cholesterol in B16/SJL mice. The data set can be described thus: Effect of peptides on total cholesterol, high fat diet administered to B16/SJL mice. In kind it is in vivo. Here is the method: Peptide injections (50 μg/animal/day for 16 weeks).
Data set [3] deals with spontaneous lesions in apoE-knockout mice. The data set is described as follows: IP administration of modified 18A peptide to apoE-knockout mice on normal diet. In kind it is in vivo. Particulars: for aortal lesions: IP administration, apoE-knockout mice. Here is the method: Similar experiments were completed in apoE-knockout animals. The peptide used was a modified 18A of the present invention with the sequence:
This peptide was administered to animals on a normal diet, to determine if the intraperitoneal administration of this peptide would inhibit lesions that these animals produce spontaneously, even without high fat diet administration. The lesions in this case is different than that produced after sixteen weeks of high fat diet administration in 57BL6/J mice.

Data set [4] is described as follows: IP administration of radiolabelled 18A-Pro-18A and human apo A-I in mice, plasma radioactivity. In kind it is in vivo, 57BL6/J mice. To be noted: for amount of the injected dosage present in the blood: 4 or 5 hours following IP injection, based on specific activity; for Total plasma cpm as a percent of the injected cpm: IP, radiolabelled, 4 or 5 hours (respectively) after injection, plasma volume assumed 4.2% of body weight; for presence of the radiolabel in isolated lipoprotein fractions (FPLC): after IP injection; for form of radioactivity in the plasma (TCA precipitation and FPLC analysis): early time points (up to 5 hours). Here is the method: Since the peptide administration experiments involves intraperitoneal administration of peptide, the effect of administration of radiolabelled peptide and human apo A-I was compared in mice. Briefly, approximately 200,000 cpm of either the peptide (4.4 μg) or human apo A-I (3.0 μg) were administered intraperitoneally into 57BL6/J mice and blood samples were taken by retro-orbital bleeding from anesthetized animals. The final time point was taken from the axilla of anesthetized animals. Radioactivity was measured in plasma sample, and was calculated as total plasma cpm, assuming plasma volume as 4.2% of the body weight.
Based on the specific activity of the radiolabelled materials, approximately […] of the injected dosage was present in the blood after 4 or 5 hours following the injection. […] It should be noted that the major lipoprotein in 57BL6/J mice is HDL.
Thus, intraperitoneal administration allows for the peptide or human apoA-I to be released into plasma gradually. Intraperitoneal administration of the peptide is therefore feasible

For data set [5] the following is noted: rat, in vivo.
Data set [6] can be described thus: BSA-induced lysis of fatty acid-containing vesicles.
The nature of data set [7]: Turnover (clearance curves) in rats. To be noted: 18A-Pro-18A versus human apo A-I.
Data set [8] has as its system diet-induced lipid accumulation in C57 BL6/J mice. The data set can be described thus: IP administration of peptide for sixteen weeks to high fat diet administered C57BL 6/J mice (aortal histology, total cholesterol, mortality). In kind it is in vivo. On the procedure: C57BL mice were administered a high cholesterol diet (modified Thomas Hartcroft) and were divided into two groups. Group I received intraperitoneal administration of saline each day for 16 weeks. Group II received intraperitoneal administration of the peptide solution (μg/mice/day) for 16 weeks. At the end of the experiment, mice were sacrificed and aortas were harvested, cross-sectioned and stained with Oil Red O. FIGS. 1A-1F show the cross sections of the aortas from animals 1 and 2.
A dosage of peptide to be injected was selected based on the in vivo studies conducted using 18A to inhibit the LPS-induced toxicity in mice (Levine, et al., PNAS, 1993, 90:12040-12044). In these experiments, […] of the peptide 18A was used per mouse to inhibit endotoxin-induced death of mice. Because of the solubility of the peptide 37pA, and since it was desirable to maintain the same volume used by Levine et al, […] of peptide per mouse per day was injected.
Peptide 18A-Pro-18A dissolved in sterile saline was administered IP everyday for sixteen weeks 11 animals on high fat diet. Control animals on high fat diet were administered saline for sixteen weeks. At the end of sixteen weeks, animals were sacrificed and histology of hearts were done. The mortality in both the groups were similar (only three in each groups) indicating no toxicity due to peptide 18A-Pro-18A administration.

The nature of data set [9]: Stability of peptide lipid complex. In kind it is physicochemical. To be noted: compared to 18A-Ala-18A and 18A-18A. An excerpt: 1. The tandem repeating class A amphipathic helix linked by a proline forms an optimal arrangement for lipid association.
(§1) 2. The amphipathic helical peptide 18A-Pro-18A is the closest mimic of human apoA-I as a bilayer stabilizer. Bilayer stabilizers increase the transition temperature of DOPE whereas destabilizing molecules decrease the transition temperature. Such a destabilization can cause the inverted phase lipids (or hexagonal phase). Formation of this by the lytic peptide can be inhibited by human apoA-I or class A peptides.

Data set [10] has as its system HIV-I Gp4l-induced cell fusion. The data set can be described thus: HIV-I Gp41-induced cell fusion. In kind it is cell-based.
In data set [11] the target is T1, HDL receptor on rat adrenal cells (Rattus norvegicus, UniProt P97943).
T1 construct: endogenous in cells; host or cells: rat adrenal cells
T1 sequence (P97943 1-509): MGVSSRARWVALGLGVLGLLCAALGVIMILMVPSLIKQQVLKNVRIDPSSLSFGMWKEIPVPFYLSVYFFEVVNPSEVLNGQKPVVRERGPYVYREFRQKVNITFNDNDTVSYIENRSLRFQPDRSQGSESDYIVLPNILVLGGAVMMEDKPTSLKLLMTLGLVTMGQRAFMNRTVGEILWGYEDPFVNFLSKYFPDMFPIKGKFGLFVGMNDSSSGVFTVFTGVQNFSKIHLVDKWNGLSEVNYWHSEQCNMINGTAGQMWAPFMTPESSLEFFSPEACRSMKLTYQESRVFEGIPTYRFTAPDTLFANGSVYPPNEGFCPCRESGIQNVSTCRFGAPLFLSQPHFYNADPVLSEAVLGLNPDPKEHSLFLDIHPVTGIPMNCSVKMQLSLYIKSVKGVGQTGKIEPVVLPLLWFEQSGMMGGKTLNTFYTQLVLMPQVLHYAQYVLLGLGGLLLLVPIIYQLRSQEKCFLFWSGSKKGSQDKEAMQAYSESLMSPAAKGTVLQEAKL
The data set is described as follows: Competition with HDL for binding to rat adrenal cells. An excerpt:
5) The amphipathic helical peptide 18A-Pro-18A competes with HDL for binding to rat adrenal cells. Recently, it has been shown that HDL delivers cholesterol to the cells through class B scavenger receptor SRBI. This receptor binds HDL with high affinity and is primarily expressed in the liver and in nonplacental steroidogenic tissues.

The test system of a further data set is neutrophil activation. The data set is described as follows: Neutrophil activation. In kind it is cell-based.
The test system of a further data set is cholesterol-loaded cells. The data set can be described thus: Efflux of phospholipid and cellular cholesterol from cholesterol-loaded cells. In kind it is cell-based. An excerpt:
4) The amphipathic helical peptide 18A-Pro-18A mimics HDL in clearing cellular cholesterol. The removal of cholesterol from peripheral cells by HDL is thought to initiate the process of reverse cholesterol transport. HDL is capable of stimulating the net release of cholesterol from cells. This process thus inhibits the formation of foam cells, the hallmark of atherosclerosis.

The subject of data set [12] is human placental lactogen synthesis. The data set can be described thus: Stimulation of human placental lactogen synthesis. In kind it is cell-based.
A short description of data set [13]: Bilayer stabilization (transition temperature of DOPE). In kind it is physicochemical.
Source text: as §1

In the case of “DEPDWLKAFYDKVAEKLKEAFPDWLKAFYDKVAEKLKEAF [Asp-Glu-Pro-18A-Pro-18A]”, the “amount of peptide in the plasma” value in data set [1] is listed as “approximately 20 μg/ml”.
“Ac-DWLKAFYDKVFEKFKEFF-NH2 [5F, Ac-Asp-Trp-Leu-Lys-Ala-Phe-Tyr-Asp-Lys-Val-Phe-Glu-Lys-Phe-Lys-Glu-Phe-Phe-NH2]”: in data set [2] (high fat diet, 50 μg/animal/day for 16 weeks, individual mice (Table III)), the Total cholesterol was 156 and 161 and 182. The “levels of plasma cholesterol” value in data set [2] (peptide injections 50 μg/animal/day for 16 weeks) is “markedly decreases”. Besides, the aortal lesions entry in [3] (listed as SEQ No. 2) is “effective”; in data set [3] (listed as modified 18A), “virtually no lesion”. Moreover, in data set [3] (after sixteen weeks, IP, normal diet), the “VLDL-density particles in cholesterol profile compared to control animals” value is listed as “decreased considerably”.
Turning to “human apo A-I: human apolipoprotein A-I, protein component of HDL, used as comparator”, in [4], the “amount of the injected dosage present in the blood” value was “approximately 1 mg”; the “Total plasma cpm as a percent of the injected cpm” value was 32%; the “presence of the radiolabel in isolated lipoprotein fractions (FPLC)” value was “exclusively in HDL”; the “form of radioactivity in the plasma (TCA precipitation and FPLC analysis)” value is given as “present in the intact peptide/protein”. The clearance curves entry in [5] is reported as “virtually superimposable”.
For the substance “DWLKAFYDKVAEKLKEAFPDWLKAFYDKVAEKLKEAF [18A-Pro-18A, class A amphipathic helical peptide 18A as head-to-tail dimer with a proline incorporated]”, in data set [4], the “amount of the injected dosage present in the blood” value is on record as “approximately 1 mg”; the “Total plasma cpm as a percent of the injected cpm” value turned out to be 25.5%; the “presence of the radiolabel in isolated lipoprotein fractions (FPLC)” value was “exclusively in HDL”; the “form of radioactivity in the plasma (TCA precipitation and FPLC analysis)” value is given as “present in the intact peptide/protein”. Besides, in data set [6], the “effectiveness in BSA-induced lysis of fatty acid-containing vesicles” value is “most effective peptide”. Also, the clearance curves entry in data set [7] is recorded as “virtually superimposable”. Moreover, the “antibody to the peptide” value in data set [8] (IP every day for sixteen weeks) was “no antibody was detected”. Also, the “toxicity (mortality compared with saline group)” value in data set [8] (IP every day for sixteen weeks, high fat diet) is on record as “no toxicity”. For the same substance, the “foam cells in cross sections from the aorta” value in data set [8] (IP over 16 weeks, high fat diet, FIG. 1C) is “no foam cells can be seen”. Besides, the “lipid accumulation in aortal cross sections compared to the control group” value in [8] (IP sixteen weeks, high fat diet, Oil Red O) is reported as “less lipid accumulation”. Besides, the Total cholesterol in data set [8] (mice on high fat diet and peptide administered, individual mice (Table I)) is 156 mg/dL and 161 mg/dL and 182 mg/dL. Further, the stability of complex entry in data set [9] is given as “most stable complex”. The “effectiveness in HIV-I Gp4l-induced cell fusion” value in [10] is “most effective peptide”. Further, the “competition with HDL for binding” value in data set [11] is recorded as “competes”. In the data set on neutrophil activation, the “effectiveness in neutrophil activation” value was “most effective peptide”. Moreover, the “efflux of phospholipid and cellular cholesterol” value in the data set with cholesterol-loaded cells is listed as “effectively effluxes”. The “effectiveness in stimulating human placental lactogen synthesis” value in data set [12] was “most effective peptide”. The bilayer stabilizing property entry in data set [13] was “most bilayer stabilizing property”.
